Laboratory results published in patent US20090092595A1, “Suppression of sPLA2-integrin binding for treating an inflammatory condition” (REGENTS OF THE UNIVERSITY OF CALIFORNIA, priority 2007, published 2009).

Target: T1, integrin αvβ3 on β3-CHO cells (UniProt A0A9J7JSN3+P05106)
T1 construct: expressed in transfected cells; host or cells: CHO
T1 sequence (P05106 27-788): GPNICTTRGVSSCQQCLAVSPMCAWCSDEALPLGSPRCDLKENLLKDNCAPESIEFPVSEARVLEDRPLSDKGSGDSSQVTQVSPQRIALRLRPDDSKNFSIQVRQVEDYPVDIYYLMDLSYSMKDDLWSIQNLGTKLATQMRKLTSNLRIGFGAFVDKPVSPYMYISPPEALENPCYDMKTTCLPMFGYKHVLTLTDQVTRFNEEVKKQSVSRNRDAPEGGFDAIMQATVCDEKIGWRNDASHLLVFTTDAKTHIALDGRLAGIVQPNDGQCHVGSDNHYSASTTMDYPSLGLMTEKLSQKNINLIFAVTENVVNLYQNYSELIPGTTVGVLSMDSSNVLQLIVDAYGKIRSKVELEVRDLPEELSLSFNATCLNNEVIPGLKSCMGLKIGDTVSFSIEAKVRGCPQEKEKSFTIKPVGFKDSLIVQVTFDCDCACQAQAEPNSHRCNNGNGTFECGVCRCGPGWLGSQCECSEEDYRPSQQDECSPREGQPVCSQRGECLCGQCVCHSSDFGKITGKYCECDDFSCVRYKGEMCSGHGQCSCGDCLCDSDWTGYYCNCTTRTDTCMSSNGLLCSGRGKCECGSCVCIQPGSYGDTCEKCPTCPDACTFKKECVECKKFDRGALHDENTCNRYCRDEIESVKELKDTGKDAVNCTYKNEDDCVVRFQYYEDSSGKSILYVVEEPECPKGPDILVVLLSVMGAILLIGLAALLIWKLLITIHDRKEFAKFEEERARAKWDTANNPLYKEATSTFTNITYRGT
T1 sequence (A0A9J7JSN3 31-1043): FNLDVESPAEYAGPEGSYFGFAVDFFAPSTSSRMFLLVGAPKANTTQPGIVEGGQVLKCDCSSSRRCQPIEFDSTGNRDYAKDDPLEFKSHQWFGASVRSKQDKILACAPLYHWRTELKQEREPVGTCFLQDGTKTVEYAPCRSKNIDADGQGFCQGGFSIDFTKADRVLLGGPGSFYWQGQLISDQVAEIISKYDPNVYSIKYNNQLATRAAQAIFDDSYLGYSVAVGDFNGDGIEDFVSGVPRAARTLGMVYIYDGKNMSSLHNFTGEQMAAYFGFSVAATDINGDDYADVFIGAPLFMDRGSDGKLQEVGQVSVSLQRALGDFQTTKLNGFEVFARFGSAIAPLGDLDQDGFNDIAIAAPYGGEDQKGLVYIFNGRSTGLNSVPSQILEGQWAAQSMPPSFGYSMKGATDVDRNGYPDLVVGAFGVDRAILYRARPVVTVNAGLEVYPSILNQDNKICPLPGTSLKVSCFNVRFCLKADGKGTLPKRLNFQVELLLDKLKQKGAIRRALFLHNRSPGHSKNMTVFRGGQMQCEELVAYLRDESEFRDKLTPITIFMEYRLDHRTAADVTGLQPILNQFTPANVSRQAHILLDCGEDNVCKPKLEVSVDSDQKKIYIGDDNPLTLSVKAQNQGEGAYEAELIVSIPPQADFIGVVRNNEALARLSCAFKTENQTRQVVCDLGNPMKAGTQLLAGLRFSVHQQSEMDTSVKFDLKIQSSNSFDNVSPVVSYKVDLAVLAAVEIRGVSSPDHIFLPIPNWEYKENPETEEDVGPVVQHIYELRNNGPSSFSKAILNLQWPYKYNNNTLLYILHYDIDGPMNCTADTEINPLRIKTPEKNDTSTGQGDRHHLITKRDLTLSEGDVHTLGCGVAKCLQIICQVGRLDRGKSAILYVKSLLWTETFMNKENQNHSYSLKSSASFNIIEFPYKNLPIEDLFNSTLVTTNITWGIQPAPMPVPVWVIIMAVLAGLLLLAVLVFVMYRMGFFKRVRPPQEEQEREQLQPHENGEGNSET
Assay: Adhesion of cells expressing recombinant αvβ3 (β3-CHO, β3-745) to immobilized sPLA2-IIA
Format: cell-based, human
Settings: compared with mock-transfected cells
Source text: FIG. 1. sPLA2-IIA binding to integrin αvβ3. a) Cell adhesion to sPLA2-IIA in an αvβ3- and proteoglycans-dependent manner. Wells of a 96-well microtiter plate were coated with sPLA2-IIA at indicated coating concentrations. Remaining protein-binding sites were blocked with BSA. CHO cells expressing recombinant αvβ3 (β3-CHO), mock-transfected CHO cells, proteoglycans-deficient CHO cell variant (pgs745), expressing recombinant αvβ3 (β3-745), and mock-transfected pgs745 cells (10^5 cells per well in 100 μl Tyrodes-HEPES with 1 mM MgCl2) were added to the wells. After incubating for 1 h at 37° C., unbound cells were removed by gentle rinsing and bound cells were quantified using endogenous phosphatase activity (Prater, C. A. et al., J. Cell Biol., 112:1031-1040 (1991)). Data is shown as means+/−SEM of triplicate experiments. b) Effect of anti-(33 mAb 7E3 on adhesion of β3-CHO cells to immobilized sPLA2-IIA. […] Bound FITC (FL1) and PE (FL2) were quantified in flow cytometry. […] Bound αvβ3 was detected using peroxidase-conjugated anti-6His antibody. Bound peroxidase activity was measured. […]

B1: wt sPLA2-IIA: Secretory phospholipase A2 group IIA, wild type, recombinant from bacteria BL21, refolded (protein)
chain: NLVNFHRMIKLTTGKEAALSYGFYGCHCGVGGRGSPKDATDRCCVTHDCCYKRLEKRGCGTKFLSYKFSNSGSRITCAKQDSCRSQLCECDKAAATCFARNKTTYNKKYQYYSNKHCRGSTPRC
modifications: left off: small tags and cut ends
adhesion of β3-CHO and β3-745 cells to immobilized sPLA2-IIA: much higher level than mock-transfected CHO or 745 cells
